According to patent publication US20240043505A1 (UNIVERSITY OF PITTSBURGH OF THE COMMONWEALTH SYSTEM OF …, published 2024):
Like-named read-outs stand apart in the source and are kept apart here.

What was measured:
[1] = biological target: T1, SARS-CoV-2 spike receptor-binding domain (RBD) (SARS-CoV-2, UniProt P0DTC2 319-541); test: indirect ELISA on coated RBD ('ELISA affinity')
[2] = biological target: T1, SARS-CoV-2 spike receptor-binding …
[3] = biological target: T2, SARS-CoV-2 RBD E484K mutant (SARS-CoV-2, UniProt P0DTC2 334-527)
N501Y [4] = biological target: N501Y
[5] = biological target: T1, SARS-CoV-2 spike receptor-binding …; remark: listed apart in the source
[6] = biological target: T1, SARS-CoV-2 spike receptor-binding …; remark: listed apart in the source
[7] = biological target: T1, SARS-CoV-2 spike receptor-binding …; remark: listed apart in the source
[8] = biological target: T2, SARS-CoV-2 RBD E484K mutant; test: ELISA
[9] = biological target: T1, SARS-CoV-2 spike receptor-binding …; test: ELISA
N501Y [10] = biological target: N501Y; remark: listed apart in the source
[11] = biological target: T1, SARS-CoV-2 spike receptor-binding …; remark: listed apart in the source
[12] = biological target: T1, SARS-CoV-2 spike receptor-binding …; test: SPR (Biacore 3000), RBD immobilised

B1: Nb97 (VHH)
VHH: HVQLVESGGGLVQAGGSLRLSCAAPGRTFSTSAMGWFRQAPGKEREFVAAIDWSNTNIHYADTVKGRFTISTDTAKNTVYLQMNNLKPEDTAVYYCAQGGWGLTQPISVDYWGKGTQVTVSS
IC50 [1]: 0.32 nM

B2: Nb10 (VHH)
VHH: DVQLVESGGGLVQAGGSLKLSCTASESTFNFNHIDWYRQAPGKQRESVAVITNTDVTNYADSVKGRFTISRDNAKNTVYLQMNSLKPEDTAVYLCNAWRFGPTGVKVDYWGQGTQVTVSS
IC50 [1]: 0.24 nM

B3: Nb12 (VHH)
VHH: HVQLVESGGGLVQAGGSLRLTCAASGGTFSTSTMDMGWFRQAPGKEREFVAVDSWNDGRAYYADSVKGRFTISRDSAKTTLYLQMNSLKPEDTAVYYCAARTERGVYDYWGRGTQVTVSS
IC50 [1]: 539 nM

B4: Nb36 (VHH)
VHH: HVQLVESGGGLVQAGGSLTLTCAASGRTFSSETMDMGWFRQAPGKEREFVAADSWNDGSTYYADSVKGRFTISRDSAKNTLYLQMNSLKPEDTAVYYCAAETYSIYEKDDSWGYWGQGTQVTVSS
IC50 [2]: 1.7 nM | binding affinity fold change relative to RBD WT (N439K): 1.43 fold | binding affinity fold change relative to RBD WT (K417N): -2.94 fold | binding affinity fold change relative to RBD WT (Y453F): 1.32 fold | binding affinity fold change relative to RBD WT (A475V): -1.13 fold | binding affinity fold change relative to RBD WT [3]: 1.29 fold | binding affinity fold change relative to RBD WT (N501Y [4]): 1.35 fold | IC50 [1]: 1.04 nM | EC50 (read off the curve) [5]: ~3 nM

B5: Nb105 (VHH)
VHH: HVQLVESGGGLVQAGGSLRLSCAVSGRTFSTYGMAWFRQAPGKERDFVATITRSGETTLYADSVKGRFTISRDNAKNTVYLQMNSLKIEDTAVYYCAVRRDSSWGYSRDLFEYDYWGQGTQVTVSS
IC50 [2]: 0.97 nM | binding affinity fold change relative to RBD WT (N439K): 1.06 fold | binding affinity fold change relative to RBD WT (K417N): -1.45 fold | binding affinity fold change relative to RBD WT (Y453F): 1.31 fold | binding affinity fold change relative to RBD WT (A475V): -1.1 fold | binding affinity fold change relative to RBD WT [3]: 1.02 fold | binding affinity fold change relative to RBD WT (N501Y [4]): -2.69 fold | IC50 [1]: 0.26 nM | EC50 (read off the curve) [6]: ~2 nM

B6: Nb92 (VHH)
VHH: HVQLVESGGGLVQAGGSLRLSCAASGRTFSAYGMGWFRQAPGKEREFVAGIARSGSEYYGDSVKGRFTISRDNAKNTVYLQMASLKAEDTGVYYCAADPTILYHALSQRTQNYRYWGPGTQVTVSS
IC50 [1]: 4.92 nM

B7: Nb9 (VHH)
VHH: HVQLVESGGGLVQTGGSLRLSCAFSGYTFSTFPTAWFRQAPGKEREFVAGIRWNGGSRDYTEYADFVKGRFTISRDNAKNMIYLQMISLKPEDTALYYCAASHGVVDGTSVNGYRYWGQGTQVTVSS
IC50 [1]: 0.89 nM

B8: Nb93 (VHH)
VHH: EVQLVESGGGLVQPGGSLRLSCAASGFTFSSYAMSWVRQAPGKGREWVAGITPGSGTFYADSVKGRFTISRDNAKNTLSLEINSLKPEDTALYYCAKCRQEFSWDFSSRDPDDFDYWGQGTQVTVSS
IC50 [1]: 1.15 nM

B9: Nb94 (VHH)
VHH: QVQLVESGGGLVQAGGSLRLSCTASGGTFRSFTMAWFRQAPGKEREFVATLSWTGVGTYYADSVKGRFTISRDIAKNTVYLEMNSLIPEDTAVYYCAASPYTYSLLSRTGDYGYWGQGTQVTVSS
IC50 [1]: 0.5 nM

B10: Nb95 (VHH)
VHH: QVQLVESGGGLVQAGGSLRLSCAASGRTFSSYSMGWFRQAQGKEREFVATINGNGRDTYYTNSVKGRFTISRDDATNTVYLQMNSLKPEDTAIYYCAADKDVYYGYTSFPNEYEYWGQGTQVTVSS
IC50 [2]: 6.05 nM | binding affinity fold change relative to RBD WT (N439K): -2.19 fold | binding affinity fold change relative to RBD WT (K417N): 1.11 fold | binding affinity fold change relative to RBD WT (Y453F): -1.31 fold | binding affinity fold change relative to RBD WT (A475V): 1.21 fold | binding affinity fold change relative to RBD WT [3]: 1.15 fold | binding affinity fold change relative to RBD WT (N501Y [4]): 1.37 fold | IC50 [1]: 2.28 nM | EC50 (read off the curve) [7]: ~6 nM

B11: Nb21 point mutant R31D (VHH)
VHH: QVQLVESGGGLVQAGGSLRLSCAVSGLGAHDVGWFRRAPGKEREFVAAIGANGGNTNYLDSVKGRFTISRDNAKNTIYLQMNSLKPQDTAVYYCAARDIETAEYTYWGQGTQVTVSS
binding result [8]: no binding | binding result [9]: no binding

B12: Nb91 (VHH)
VHH: HVQLVESGGGLVQPGGSLRLSCAASGLTLNDYAIGWFRQAPGKEREGVSCISSSDGTTYYADSVKGRFTISRDNAKNTVYLQMNSLKPEDTAVYYCATDIAPFYCSWPLRTRLVEYWGQGTQVTVSS
IC50 [1]: 1.28 nM

B13: Nb96 (VHH)
VHH: HVQLVESGGGLVQAGDSLRLSCAASGRDFSSYAMGWFRQAPGKEREFVGVISSGDVGTFYEDSVKGRFTISRDDAKNTVDLQMNSLKPEDTAVYYCAAALYVTSTRGSYAYWGQGTQVTVSS
IC50 [1]: 0.04 nM

B14: Nb99 (VHH)
VHH: QVQLVESGGGLVQTGGSLRLSCAASGSTRSIWYSGWYRQAPGKQRELVASLTSGGTTYYPDSMKGRFTISGSSGLNMVYLQMNSLRPEDTAVYSCNVRTGSGVYWGQGTQVTVSS
IC50 [1]: 0.35 nM

B15: Nb34 (VHH)
VHH: DVQLVESGGGLVQAGGSLRLSCAASGFTFSNYVMYWGRQAPGKGREWVSGIDSDGSDTAYASSVKGRFTISRDNAKNTLYLQMNNLKPEDTALYYCVKSKDPYGSPWTRSEFDDYWGQGTQVTVSS
IC50 [2]: 0.63 nM | binding affinity fold change relative to RBD WT (N439K): 1.18 fold | binding affinity fold change relative to RBD WT (K417N): -1.96 fold | binding affinity fold change relative to RBD WT (Y453F): 1.2 fold | binding affinity fold change relative to RBD WT (A475V): -1 fold | binding affinity fold change relative to RBD WT [3]: 1.07 fold | binding affinity fold change relative to RBD WT (N501Y [4]): -5.79 fold | IC50 [1]: 0.47 nM | EC50 (read off the curve) (N501Y [10]): ~7 nM | EC50 (read off the curve) [11]: ~1 nM

B16: Nb107 (VHH)
VHH: HVQLVESGGGLVQAGGSLRLSCAASGRAIGIHRMAWFRQAPGKERAFVAAIQWTGDMPTYADSLKGRFTISADNAKNTVSLQMTSLKPDDTAVYYCAARSATTALYDYWGQGTQVTVSS
IC50 [1]: 0.76 nM

B17: Nb89 (VHH)
VHH: HVQLVESGGGLVQAGGSLRLSCAASGGTFTTFRMAWFRQTPGKEREFVAASSWGFVNYADPVKGRFTISRDNAKNTVYLEMSSLKTEDTAVYYCAARNPGTGQYDYWGQGTQVTVSS
Kd [12]: 0.108 nM | koff [12]: 0.000624 s⁻¹ | kon [12]: 5.78e+06 M⁻¹ s⁻¹ | IC50 [1]: 1.09 nM

B18: Nb102 (VHH)
VHH: QVQLVESGGGLVQAGGSLRLSCAASGRTFSNSHMGWFRQAPGKEREFVAVISRSGGSTLYADSVKGRFTISRDNAKNTVYLQMNSLKPEDTAVYYCAASRTAGLTSNRSLYDYWGRGTQVTVSS
IC50 [1]: 28.4 nM
